Assay [1] has as its target T1, AIM2 inflammasome (Mus musculus, UniProt Q9EPB4).
T1 construct: endogenous in cells; host or cells: BMDMs of wild-type and bat ASC2/rtTA mice
T1 sequence (Q9EPB4 1-193): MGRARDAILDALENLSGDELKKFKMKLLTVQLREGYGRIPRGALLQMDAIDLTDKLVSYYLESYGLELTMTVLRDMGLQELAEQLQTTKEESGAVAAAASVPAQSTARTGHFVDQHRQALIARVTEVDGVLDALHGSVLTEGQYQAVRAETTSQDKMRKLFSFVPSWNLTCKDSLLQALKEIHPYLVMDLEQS
Briefly: Inflammasome activation in LPS-primed BMDMs of bat ASC2/rtTA mice transfected with poly(dA:dT). Particulars: Dox, LPS 3 h, poly(dA:dT) transfection 4 h, FIG. 5D, 5E. It counts as cell-based. From the text:
(§1) Inflammasome activation assays.

In assay [2] the test system is peritonitis induced by MSU crystals. The experiment in a line: Peritonitis induced by MSU crystals in bat ASC2/rtTA mice. Particulars: bat ASC2/rtTA vs WT mice, oral Dox 7 days, 200 μg MSU crystals i.p., 4 h. It counts as in vivo, mouse.
For assay [3], the system named is H1N1 IAV, strain A/NWS/33. It counts as in vivo, mouse.
The subject of the next assay is Zika virus (ZIKV). The format is cell-based, mouse. Particulars: bat ASC2/rtTA vs WT BMDMs, ZIKV MOI=1, 24 h, Dox; FIG. 10F.
Assay [4] concerns Pteropine orthoreovirus 3 (PRV3M). The format is cell-based, mouse. As to conditions: bat ASC2/rtTA vs WT BMDMs.
The target of the next assay is T2, human ASC (Homo sapiens, UniProt Q9ULZ3).
T2 construct: expressed in transfected cells; host or cells: HEK293T
The experiment in a line: Co-immunoprecipitation of ASC2-His with human ASC-Flag from HEK293T cells. The format is binding. Particulars: 0.25 μg bat or hupa4 ASC2 vs 3 μg human ASC2 transfected, FIG. 26A. Here is the method:
Co-immunoprecipitation. HEK293T cells were transfected in 6-well plate with plasmids encoding His-tagged empty vector (His alone), bat ASC2, human ASC2, and Hupa4 ASC2 along with Flag-tagged human or bat ASC. 3 μg human ASC2, in contrast to 0.25 μg control, bat or hupa4 ASC2, were transfected to normalize the expression. At 48 h post-transfection, cells were lysed in IP lysis buffer (Pierce) according to manufacturer's protocol and centrifuged at 500 g for 10 minutes at 4° C. The supernatants were subjected to immunoprecipitation by incubation for 16 hours at 4° C. with anti-Flag (Sigma) incubated magnetic beads, followed by washing three times with TBS containing 0.05% Tween 20 and once with purified water. Bound proteins were separated by 15% SDS-PAGE, followed by immunoblotting analysis with the indicated antibodies.

Assay [5] concerns the target T3, NLRP3 inflammasome (Homo sapiens, UniProt Q9ULZ3). Briefly: ASC speck and filament formation in HEK293T cells reconstituted with human NLRP3-mCitrine and human ASC-mPlum (ImageStream, confocal). The format is cell-based. Also noted: expressed in transfected cells; host or cells: HEK293T. Here is the method:
as §1
ImageStream imaging flow cytometry. […] Nuclei were stained with DAPI.
Confocal imaging. […] At 48 h post-transfection, cells were fixed with 10% formalin for 15 min at room temperature. DAPI (1:2000 dilution) was used for nuclear staining. All samples were then mounted and examined using the Leica TCS SP8 confocal microscope.

Assay [6] addresses T3, NLRP3 inflammasome. Briefly: ASC speck formation by flow cytometry in reconstituted HEK293T cells (human NLRP3-mCitrine, human ASC-mPlum) with ASC2 of various species. Also on record: expressed in transfected cells; host or cells: HEK293T. The format is cell-based. Particulars: 50 ng ASC2-LSSmOrange, 48 h, FIG. 27A. Here is the method: Plasmids. ASC2 sequences of 16 non-primate non-bat species were gene synthesized (IDT) and cloned into pQCXIH-LSSmOrange vector (Clontech). All constructs were prepared with endotoxin-free plasmid kits (Omega Bio-tek).
Transfection. HEK293T cells were seeded at 3×10^5/mL in 96-well plate overnight. […] 48 h post-transfection, cells were harvested for flow cytometry analysis.
A general note: A flow cytometer gives signals particle by particle.

Assay [7] addresses T4, NLRP3 inflammasome (Mus musculus, UniProt Q9EPB4).
T4 sequence (Q9EPB4 1-193): T1 sequence (Q9EPB4 1-193)
Briefly: Inflammasome activation in LPS-primed BMDMs of bat ASC2/rtTA mice stimulated with MSU crystals. It counts as cell-based. Also noted: endogenous in cells; host or cells: BMDMs of C57BL/6 wild-type and bat ASC2/rtTA mice. As to conditions: Dox, LPS 3 h, MSU 16 h, FIG. 6D, 6E.
Source text: as §1

Assay [8] addresses T3, NLRP3 inflammasome. Briefly: Inflammasome activation in LPS-primed THP-1 macrophages stably expressing ASC2, stimulated with nigericin. The format is cell-based. Also on record: endogenous in cells; host or cells: THP-1 macrophages (PMA-differentiated, LPS-primed). Particulars: THP-1 macrophages, ASC2-LSSmOrange, LPS 3 h.
Source text: (§2) Generation of THP-1 and IMACs stable cells. […] Single cell clones were generated for THP-1 cells stably expressing ASC2-LSSmOrange.
as §1
ImageStream imaging flow cytometry.

In assay [9] the target is NLRP1 inflammasome (Homo sapiens). Briefly: Talabostat-induced inflammasome activation in N/TERT-1 keratinocytes stably expressing ASC2-mCitrine. Particulars: N/TERT-1, talabostat 0, 20, 200 μM, 24 h; FIG. 25B.
Description: Immortalized N/TERT-1 keratinocyte were cultured in KSFM media (Gibco) supplemented with 30 g/ml BPE, 0.1 ng/ml rEGF, and 0.3 mM calcium chloride.
GP2-293 cells stably expressing gag and pol proteins, were co-transfected with pVSV-G envelope vector and mCitrine-only empty vector, bat or human ASC2-mCitirine pQCXIH vector for 48 h. Supernatants containing retroviruses were collected, centrifuged at 500 g for 10 min. N/TERT-1 cells were transduced with low MOI of retrovirus for 24 h to obtain a single viral copy per transduced cell. 72 h post-transduction, cells were selected by 20 μg/mL Hygromycin B antibiotic for at least 1 week to ensure stable expression. The stable cells were FACS-sorted for equal fluorescent intensity to ensure the same expression levels across cell lines.
Inflammasome activation assay. N/TERT-1 cells in KSFM without antibiotics were seeded at 1.8×10^5/mL into 96-well plates overnight. Cells were treated with various concentrations (0, 20, 200 μM) of talabostat dissolved in DMSO for 24 h. DMSO concentration is controlled at 0.5% for all treated wells.
The target in a further assay is NLRP1 inflammasome (Homo sapiens, UniProt Q9ULZ3). The assay is described as above.
Assay [10] has as its target AIM2 inflammasome (Homo sapiens, UniProt Q9ULZ3). Briefly: Inflammasome activation in LPS-primed THP-1 macrophages stably expressing ASC2, transfected with poly(dA:dT). It counts as cell-based. Also noted: endogenous in cells; host or cells: THP-1 macrophages (PMA-differentiated, LPS-primed, poly(dA:dT)-transfected). Particulars: LPS 3 h, poly(dA:dT) 4 h.
Source text: as §2, §1

T3 sequence (Q9ULZ3 whole entry): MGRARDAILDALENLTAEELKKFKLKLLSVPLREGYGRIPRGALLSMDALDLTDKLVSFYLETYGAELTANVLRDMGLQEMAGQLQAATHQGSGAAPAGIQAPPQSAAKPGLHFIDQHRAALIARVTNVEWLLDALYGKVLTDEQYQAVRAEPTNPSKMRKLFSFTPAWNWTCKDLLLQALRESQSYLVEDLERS
Sequence of NLRP1 inflammasome (Q9ULZ3 whole entry): as above
Sequence of AIM2 inflammasome (Homo sapiens, UniProt Q9ULZ3) (Q9ULZ3 whole entry): as above
Sequence of NLRP1 inflammasome (Homo sapiens) (Q9ULZ3 whole entry): as above
T2 sequence (Q9ULZ3 whole entry): as above

B1: bat ASC2: ASC2 (PYRIN-only protein) of the bat Pteropus alecto, SEQ ID NO:11; expressed from vectors or as Dox-inducible transgene (protein)
chain: MGKKRDAILEALENLTADELKKFKLKLGAAPLRQGFRNIPRGALGPLDAVDLTDKLVAFYCEDYGAELTAVVLRDIGMQEEAERLQGVA
Turning to B1, in the assay with AIM2 inflammasome [1], the “Activation of AIM2 inflammasome (LDH release, IL-1β)” value is reported as “suppressed the activation”. Besides, the “Recruitment of neutrophils and inflammatory monocytes (peritoneal lavage)” value in assay [2] (FIG. 8B, 8C) is recorded as “significantly reduced”. The “IL-1β release in the peritoneal lavage” value in [2] (FIG. 8D) is recorded as “decreased”. The “Level of IL-1β in lung tissue extracts” value in [3] (3 dpi, bat ASC2/rtTA vs WT mice, FIG. 10B) is listed as “significantly reduced”. The Lung viral titres entry in [3] (3 dpi, bat ASC2/rtTA vs WT mice, FIG. 10C) was “no significant different”. Besides, in [3] (bat ASC2/rtTA mice, IAV 0.5×10^5 pfu intranasal one day after Dox, 14 days post-infection, 100% of WT mice succumbed), the Mortality is reported as 50%. In addition, the “IL-1β secretion triggered by ZIKV” value in the assay on Zika virus (ZIKV) was “substantially inhibited”. The “IL-1β secretion triggered by PRV3M” value in assay [4] (LPS 3 h, PRV3M MOI=5, 24 h, Dox, FIG. 10G) is on record as “substantially inhibited”. Also, the “Viral load for PRV3M” value in assay [4] (MOI=5, 24 h, FIG. 10E) is reported as “without affecting the viral load”. In addition, the “Interaction with human ASC (co-IP)” value with human ASC is given as “interact strongly with human ASC”. The “ASC2 filament formation / distribution” value in the assay with NLRP3 inflammasome [5] (HEK293T, ImageStream and confocal) was “formed fine and long filaments”. In addition, the “Co-localization with human ASC” value with NLRP3 inflammasome [5] (HEK293T, imaging, FIG. 3A) is “co-localization between bat ASC2 and human ASC”. Further, in the assay with NLRP3 inflammasome [5] (HEK293T, human NLRP3-mCitrine, human ASC-mPlum, 50 ng ASC2-LSSmOrange, 48 h post-transfection), the “ASC speck formation (human NLRP3 inflammasome activation)” value is listed as “suppressed the activation of human NLRP3”. Moreover, the “Potency in inhibiting human NLRP3 inflammasome compared with human ASC2” value with NLRP3 inflammasome [5] (expression normalized by gating equal signal intensity, FIG. 3C) is listed as “significantly more potent”. Besides, in the assay with NLRP3 inflammasome [6], the “Effect on inflammasome activation (ASC speck formation)” value is recorded as “inhibitory effect”. Further, the “Activation of NLRP3 inflammasome (LDH release, IL-1β)” value with NLRP3 inflammasome [7] is given as “suppressed the activation”. For the same molecule, in the assay with NLRP3 inflammasome [8] (nigericin 2 h, compared with human ASC2, FIG. 3E), the “Pyroptotic cell death (LDH release)” value was “significantly more downstream inhibition”. In addition, the “Secretion of IL-1β in the supernatants” value with NLRP3 inflammasome [8] (nigericin 2 h, compared with human ASC2, FIG. 3F) was “significantly more downstream inhibition”. Besides, the “Induction of ASC specks” value in the assay with NLRP3 inflammasome [8] (nigericin, FIG. 4B, 4C) was “inhibited the induction of ASC specks more potently than human ASC2”. For the same molecule, the figures for the “Cell death (LDH release)” value (in assay [9]; in the assay with AIM2 inflammasome [10] (FIG. 3G)) were “reduces cell death” and “inhibited”, respectively. For the same molecule, the IL-1β secretion entry with NLRP1 inflammasome (N/TERT-1, talabostat 0, 20, 200 μM, 24 h, FIG. 25C) is “reduces IL-1β secretion”; with AIM2 inflammasome [10] (FIG. 3H), “inhibited”. Also, the “Potency in inhibiting NLRP1 inflammasomes compared with human ASC2” value with NLRP1 inflammasome (human skin cells (N/TERT-1)) was “significantly more potent”.
